We go through two molecules from US20190016816A1 (APTEVO RESEARCH AND DEVELOPMENT, published 2019).

One test deals with T1, FcγRIIb (CD32b) (UniProt P31994 43-310, limits assumed).
T1 construct: whole, on cells
T1 sequence (looked up): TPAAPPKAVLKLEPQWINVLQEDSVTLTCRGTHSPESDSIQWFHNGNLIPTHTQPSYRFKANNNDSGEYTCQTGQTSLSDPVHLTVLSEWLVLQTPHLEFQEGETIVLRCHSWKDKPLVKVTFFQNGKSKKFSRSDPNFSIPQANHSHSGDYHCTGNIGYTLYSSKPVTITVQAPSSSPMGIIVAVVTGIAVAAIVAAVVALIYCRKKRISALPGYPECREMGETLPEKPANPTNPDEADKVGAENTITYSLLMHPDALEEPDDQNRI
The experiment in a line: flow cytometry, CHO cells stably expressing CD32b, fluorescent anti-human IgG secondary, MFI (mean). The source says: ALG.APV-210 contains mutations introduced to prevent interaction with Fcγ receptors (FcγR) that could lead to FcγR-mediated T-cell activation or ADCC, ADCP, CDC etc. Binding of ALG.APV-210 was therefore tested on CHO cell transfectants stably expressing the following FcγR: FcγRI (CD64), FcγRIIa (CD32a His131), FcγRIIb (CD32b), FcγRIIIa (CD16a Val158 and CD16a Phe158), and FcγRIIIb (CD16b). Untransfected CHO cells were used as negative control. A control human IgG1 molecule was used as a positive control. Different concentrations of ALG.APV-210 or control IgG1 were incubated with the FcγR-expressing cell lines, washed, and labeled with a secondary anti-human IgG reagent. Binding of ALG.APV-210 and the control IgG1 was detected by flow cytometry.
In general terms: In flow cytometry, cells or beads pass a laser one at a time.

Test [1] deals with T2, human CD137 on cells (human, UniProt Q07011 24-255).
T2 construct: also called 4-1BB; TNFRSF9 (CHO-K1/human CD137 cells)
T2 sequence (Q07011 24-255 limits assumed): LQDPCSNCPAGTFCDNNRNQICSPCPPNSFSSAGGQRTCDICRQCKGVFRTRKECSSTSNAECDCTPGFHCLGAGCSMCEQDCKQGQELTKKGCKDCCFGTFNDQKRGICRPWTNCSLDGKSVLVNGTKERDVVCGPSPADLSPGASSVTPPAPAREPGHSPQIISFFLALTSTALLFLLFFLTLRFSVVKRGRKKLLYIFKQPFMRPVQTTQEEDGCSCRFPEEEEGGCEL
The experiment in a line: flow cytometry, MFI of all CD3+CD8+ cells gated from CD3-stimulated human PBMC. The method, then:
(§1) Following 48 h of incubation with or without CD3, human and cynomolgus PBMC were harvested, pooled, recounted and diluted in FACS buffer (PBS+0.5% BSA, 0.05% NaN₃) to a concentration of 5×10⁶ cells/mL. 50 μL (0.25×10⁶ cells) of cell solution was added to a 96-well FACS staining plate (Falcon #351190). Following 10 min of Fc-blocking in RT using Beriglobin (hIgG, 200 μg/mL), cells were washed in FACS buffer and then incubated for 1 h in 4° C. with 100 μL of the biotinylated ALG.APV-210 or negative control. The antibodies were added in a serial dilution starting either at 5 μg/mL titrating down in a 12 step ⅓ dilution down to 0.0003 μg/mL (exp 1) or 1 μg/mL titrating down in a 12 step ½ dilution down to 0.0005 μg/mL (exp 2). […] Cells were analysed for ALG.APV-210 binding using flow cytometry by gating on viable, single cells expressing CD3 and CD8. MFI values (FMO subtracted) from 2 independent experiments as well as normalized pooled data from 2 experiments and EC₅₀-values were determined and plotted using GraphPad Prism 7, non-linear regression log (agonist) vs. normalized response—variable slope, n=6 donors/group.

Test [2] concerns the target T2, human CD137 on cells. The test is described as follows: flow cytometry, percentage of CD8 T cells (gated from CD3-stimulated human PBMC) bound by the biotinylated antibody, exp 1, n=3 donors. The method, then:
as §1

Test [3] deals with T3, cynomolgus CD137 on cells (cynomolgus macaque, UniProt A9YYE7 24-254).
T3 construct: whole, on cells; also called CHO-K1/cynomolgus CD137 cell line; cynomolgus monkey CD137 on CD3-stimulated primary CD8 T cells
T3 sequence (A9YYE7 entry or part of it): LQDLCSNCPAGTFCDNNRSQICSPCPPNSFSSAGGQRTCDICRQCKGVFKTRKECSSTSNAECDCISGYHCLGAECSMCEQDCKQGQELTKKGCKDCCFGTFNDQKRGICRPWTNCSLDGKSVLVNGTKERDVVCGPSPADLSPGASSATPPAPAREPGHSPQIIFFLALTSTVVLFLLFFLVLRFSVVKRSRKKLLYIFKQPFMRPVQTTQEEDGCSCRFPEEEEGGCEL
The experiment in a line: flow cytometry, CD8 T cells gated from CD3-stimulated cynomolgus PBMC, biotinylated antibody + streptavidin-APC, exp 1, n=3 donors. The method, then: as §1, with “control.” for “control. The antibodies were added in a serial dilution starting either at 5 μg/mL titrating down in a 12 step ⅓ dilution down to 0.0003 μg/mL (exp 1) or 1 μg/mL titrating down in a 12 step ½ dilution down to 0.0005 μg/mL (exp 2).”
In ELISA tests, the binding of biotinylated ALG.APV-210 to CD137 was similar to that of the non-biotinylated ALG.APV-210 (0.6 nM vs. 0.7 nM). The binding (EC₅₀) of the biotinylated ALG.APV-210 to its immunomodulatory target CD137 when expressed on activated primary human and cynomolgus CD8 T cells from CD3 stimulated PBMC was assessed and compared between the two species as well as to unstimulated cells. […]

A word on the EC50: it is the midpoint of the concentration-response curve. Higher therefore signals a less potent agent. One may read the EC50 (read off the curve) as the concentration at which the effect is half-maximal.

B1: ALG.APV-210 (bispecific antibody)
chain: EVQLLESGGGLVQPGGSLRLSCAASGFTFSHGSMYWVRQAPGKGLEWVSSISSGSGSTYYADSVKGRFTISHDNSKNTLYLQMNSLRAEDTAVYYCARSSYYGSYYSIDYWGQGTLVTVSSGGGGSGGGGSGGGGSGGGGSDIQMTQSPSSLSASVGDRVTITCRASQSISSYLNWYQQKPGKAPKLLIYAASSLQSGVPSRFSGSGSGTDFTLTISSLQPEDFATYYCQQYYDNLPTFGQGTKLEIKEPKSSDKTHTCPPCPAPEAAGAPSVFLFPPKPKDTLMISRTPEVTCVVVDVSHEDPEVKFNWYVDGVEVHNAKTKPREEQYNSTYRVVSVLTVLHQDWLNGKEYKCAVSNKALPAPIEKTISKAKGQPREPQVYTLPPSRDELTKNQVSLTCLVKGFYPSDIAVEWESNGQPENNYKTTPPVLDSDGSFFLYSKLTVDKSRWQQGNVFSCSVMHEALHNHYTQKSLSLSPGSGGGGSGGGGSGGGGSPSEVQLLESGGGLVQPGGSLRLSCAASGFTFSSYAMSWVRQAPGKCLEWVSAISGSGGSTYYADSVKGRFTISRDNSKNTLYLQMNSLRAEDTAVYYCARYYGGYYSAWMDYWGQGTLVTVSSGGGGSGGGGSGGGGSGGGGSDIQMTQSPSSLSASVGDRVTITCRASQSISSFLNWYQQKPGKAPKLLIYAASSLQSGVPSRFSGSGSGTDFTLTISSLQPEDSATYYCQQTYGYLHTFGCGTKLEIKR
notes: Optimized ADAPTIR scFv-Fc-scFv homodimer with stabilizing disulfide in the 1210 scFv; also called 5T4-CD137 bispecific antibody
For the molecule B1, the binding result with FcγRIIb (CD32b) is recorded as “no binding (tested: 1000 nM)”.

B2: biotinylated ALG.APV-210 (bispecific antibody)
chain: B1 chain
notes: also called ALG.APV-210 (biotinylated for FACS detection)
In the case of B2, in the test with human CD137 on cells [1], the EC50 was determined as 0.235 nM. Besides, the half-maximal effective concentration (EC50 (read off the curve)) with human CD137 on cells [2] is approximately 0.02 nM; in test [3], approximately 0.3 nM.
